Measured values taken from patent publication US20140223606, “COMPOSITIONS AND METHODS COMPRISING SEQUENCES HAVING MEGANUCLEASE ACTIVITY” (PIONEER HI BRED INTERNATIONAL INC, published 2014).

How the values were obtained:
Test in all cases: cell_activity; maize
Settings in all cases: tags: SV40 NLS
MHP77.3(L9-12) = biological target: T1, MHP77.3(L9-12) (artificial)
T1 chain: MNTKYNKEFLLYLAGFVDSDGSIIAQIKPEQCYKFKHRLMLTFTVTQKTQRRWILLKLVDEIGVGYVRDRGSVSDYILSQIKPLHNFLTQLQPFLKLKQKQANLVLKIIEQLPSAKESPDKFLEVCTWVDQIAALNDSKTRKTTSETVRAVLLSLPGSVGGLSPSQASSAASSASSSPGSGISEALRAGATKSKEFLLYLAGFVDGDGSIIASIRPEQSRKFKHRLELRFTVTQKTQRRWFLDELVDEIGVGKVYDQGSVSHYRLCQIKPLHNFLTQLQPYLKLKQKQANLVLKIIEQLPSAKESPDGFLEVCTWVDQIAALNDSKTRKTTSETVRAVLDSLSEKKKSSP

MHP77.3(L9-11) = biological target: T2, MHP77.3(L9-11) (artificial)
T2 chain: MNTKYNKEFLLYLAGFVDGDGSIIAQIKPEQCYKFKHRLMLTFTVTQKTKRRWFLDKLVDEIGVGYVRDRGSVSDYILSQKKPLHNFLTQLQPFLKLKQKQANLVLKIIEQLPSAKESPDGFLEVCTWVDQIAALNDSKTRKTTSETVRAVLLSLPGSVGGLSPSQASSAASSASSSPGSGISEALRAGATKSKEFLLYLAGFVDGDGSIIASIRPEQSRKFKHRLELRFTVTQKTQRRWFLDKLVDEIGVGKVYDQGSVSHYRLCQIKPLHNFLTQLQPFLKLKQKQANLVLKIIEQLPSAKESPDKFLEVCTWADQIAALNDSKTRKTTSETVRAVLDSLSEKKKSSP

MHP77.3 = biological target: T3, MHP77.3 (artificial)
T3 chain: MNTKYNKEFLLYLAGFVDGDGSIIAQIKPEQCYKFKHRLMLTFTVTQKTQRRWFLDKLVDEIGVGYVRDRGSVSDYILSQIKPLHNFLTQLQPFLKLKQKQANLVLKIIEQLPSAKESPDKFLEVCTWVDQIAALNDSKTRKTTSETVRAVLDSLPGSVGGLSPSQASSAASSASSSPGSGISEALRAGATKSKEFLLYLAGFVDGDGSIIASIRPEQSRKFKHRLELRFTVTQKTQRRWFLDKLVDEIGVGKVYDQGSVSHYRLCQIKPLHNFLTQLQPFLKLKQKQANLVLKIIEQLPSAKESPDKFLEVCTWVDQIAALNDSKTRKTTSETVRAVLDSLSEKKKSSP

MHP77.3(15) = biological target: T4, MHP77.3(15) (artificial)
T4 chain: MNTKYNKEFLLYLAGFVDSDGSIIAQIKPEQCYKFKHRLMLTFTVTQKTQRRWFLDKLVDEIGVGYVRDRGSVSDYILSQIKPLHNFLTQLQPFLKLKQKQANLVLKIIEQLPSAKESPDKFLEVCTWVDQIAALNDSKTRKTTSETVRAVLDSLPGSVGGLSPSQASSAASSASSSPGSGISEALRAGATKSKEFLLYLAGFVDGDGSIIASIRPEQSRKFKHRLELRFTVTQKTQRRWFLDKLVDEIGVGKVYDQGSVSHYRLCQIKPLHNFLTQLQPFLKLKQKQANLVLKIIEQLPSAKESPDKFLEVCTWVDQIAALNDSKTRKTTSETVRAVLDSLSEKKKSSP

MHP77.3(L9-02) = biological target: T5, MHP77.3(L9-02) (artificial)
T5 chain: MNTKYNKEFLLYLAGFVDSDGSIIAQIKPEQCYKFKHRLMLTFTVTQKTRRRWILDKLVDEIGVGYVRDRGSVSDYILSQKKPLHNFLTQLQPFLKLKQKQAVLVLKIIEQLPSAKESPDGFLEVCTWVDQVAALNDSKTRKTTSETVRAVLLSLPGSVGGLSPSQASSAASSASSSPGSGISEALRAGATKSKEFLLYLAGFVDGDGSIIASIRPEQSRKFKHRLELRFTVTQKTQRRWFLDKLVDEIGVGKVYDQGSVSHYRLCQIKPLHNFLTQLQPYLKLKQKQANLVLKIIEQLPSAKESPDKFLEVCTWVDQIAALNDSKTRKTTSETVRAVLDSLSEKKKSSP

B1: MHP77 recognition site (dsDNA)
DNA 1: GGGCGGTATGTATGTCATACTA
DNA 2: TAGTATGACATACATACCGCCC
With B1 the activity (MHP77.3(L9-12)) was 19 % target site mutation rate, the activity (MHP77.3(L9-11)) was 35 % target site mutation rate and the activity (MHP77.3) was 11 % target site mutation rate. The activity (MHP77.3(15)) was 22 % target site mutation rate and the activity (MHP77.3(L9-02)) was 5 % target site mutation rate.
